Test results published in US12134634B2.
Values belong to the substance of their own block, whether it stands above or below them.

Assays:
[1] = target: NIR JNK biosensor (… SEQUENCE)
[2] = target: NIR PKA biosensor (… SEQUENCE)
[3] = target: miRFP670nano-DEVD-miRFP720 FRET-based reporter for caspase-3 activity (… SEQUENCE)

- FRET/miRFP670nano fluorescence ratio [1]: 35%
Substance: c-Jun N-terminal kinase (JNK) (enzyme)

- FRET/miRFP670nano fluorescence ratio [2]: 33%
Substance: Protein Kinase A (PKA) (enzyme)

- FRET/miRFP670nano fluorescence ratio detected at 725 nm/667 nm [3]: 1.65 fold
Substance: caspase-3 (from UniProt P42574) (enzyme)
